In patent publication US20250051404A1:

Assays:
[1] = target: integrin αvβ3 expressed on CHO cells (CHO-αvβ3); experiment: cell-based or functional assay
human VEGF165 (human) = human VEGF165 (human) (UniProt P15692); experiment: direct binding ELISA, VEGF165 coated, anti-human IgG Fc-HRP detection

Sequence of soluble integrin αvβ3 (P06756 31-992, chain 1 of 2): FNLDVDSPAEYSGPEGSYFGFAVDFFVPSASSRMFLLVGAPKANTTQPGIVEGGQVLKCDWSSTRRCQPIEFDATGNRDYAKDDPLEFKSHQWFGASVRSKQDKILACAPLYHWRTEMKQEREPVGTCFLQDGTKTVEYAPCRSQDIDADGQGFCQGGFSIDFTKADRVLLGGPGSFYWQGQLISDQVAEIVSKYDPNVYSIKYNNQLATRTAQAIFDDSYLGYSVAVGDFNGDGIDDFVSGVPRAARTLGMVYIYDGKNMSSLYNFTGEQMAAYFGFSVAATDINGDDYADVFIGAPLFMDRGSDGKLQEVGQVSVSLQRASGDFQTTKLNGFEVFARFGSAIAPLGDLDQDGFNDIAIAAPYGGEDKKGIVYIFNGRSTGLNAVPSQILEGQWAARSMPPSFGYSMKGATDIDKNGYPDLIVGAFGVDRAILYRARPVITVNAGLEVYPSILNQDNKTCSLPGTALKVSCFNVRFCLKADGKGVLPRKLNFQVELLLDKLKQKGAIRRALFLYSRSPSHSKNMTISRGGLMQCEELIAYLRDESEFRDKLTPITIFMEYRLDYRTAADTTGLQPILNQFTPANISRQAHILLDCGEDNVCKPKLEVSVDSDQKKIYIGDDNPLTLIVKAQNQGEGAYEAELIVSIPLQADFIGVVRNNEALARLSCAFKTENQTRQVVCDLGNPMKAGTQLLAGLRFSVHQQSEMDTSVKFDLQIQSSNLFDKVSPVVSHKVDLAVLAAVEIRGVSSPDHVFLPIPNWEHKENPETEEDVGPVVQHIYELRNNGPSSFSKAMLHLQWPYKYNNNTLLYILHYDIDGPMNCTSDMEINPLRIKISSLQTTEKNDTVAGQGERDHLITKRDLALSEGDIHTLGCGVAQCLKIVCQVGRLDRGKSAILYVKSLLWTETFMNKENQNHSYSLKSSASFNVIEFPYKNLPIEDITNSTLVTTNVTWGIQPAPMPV
Sequence of soluble integrin αvβ3 (P05106 27-718, chain 2 of 2, further chain): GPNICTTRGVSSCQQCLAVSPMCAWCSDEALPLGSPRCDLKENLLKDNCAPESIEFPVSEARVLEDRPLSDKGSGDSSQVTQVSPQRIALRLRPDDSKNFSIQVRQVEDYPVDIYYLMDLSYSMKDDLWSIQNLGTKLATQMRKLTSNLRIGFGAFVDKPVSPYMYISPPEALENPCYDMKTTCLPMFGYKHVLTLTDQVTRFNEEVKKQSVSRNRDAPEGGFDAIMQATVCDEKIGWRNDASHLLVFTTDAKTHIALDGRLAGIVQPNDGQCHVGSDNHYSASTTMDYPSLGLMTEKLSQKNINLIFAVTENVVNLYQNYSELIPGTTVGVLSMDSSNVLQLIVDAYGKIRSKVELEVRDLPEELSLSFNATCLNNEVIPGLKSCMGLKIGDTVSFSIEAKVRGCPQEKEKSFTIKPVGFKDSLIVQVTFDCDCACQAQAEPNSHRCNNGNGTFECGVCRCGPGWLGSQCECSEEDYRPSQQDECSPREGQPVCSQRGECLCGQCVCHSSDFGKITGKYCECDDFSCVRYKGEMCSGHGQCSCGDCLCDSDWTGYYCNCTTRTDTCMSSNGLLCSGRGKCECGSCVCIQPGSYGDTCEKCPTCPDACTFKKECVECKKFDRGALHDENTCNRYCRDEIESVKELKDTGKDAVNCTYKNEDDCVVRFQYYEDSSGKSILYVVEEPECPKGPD

Row | EC50 (human VEGF165 (human)) [nM] | Substance | αvβ3, IC50 (nM), inhibition of CHO-αvβ3 cell adhesion to fibrinogen [1] [nM] | IC50 (soluble integrin αvβ3) [nM]
1 | – | Positive Control 3 (wild type Rho, SEQ ID NO: 1) (from UniProt P30403 408-475) (ligand) | 24.7 | 2.6 to 3.2
2 | 0.088 to 0.195 | Positive Control 2 (aflibercept) (Fc fusion) | – | –
